Data reported in US20210032365A1 (Chugai, published 2021).
Each block holds one binder with its values, some of them ahead of it.

Tests used:
human C1s [1] = biological target: T1, human C1s (human, UniProt P09871 16-688); assay: SPR, Ab captured; pH 5.8, 3 uM Ca
T1 construct: also called hC1s; serum-derived human C1s (CompTech)
T1 sequence: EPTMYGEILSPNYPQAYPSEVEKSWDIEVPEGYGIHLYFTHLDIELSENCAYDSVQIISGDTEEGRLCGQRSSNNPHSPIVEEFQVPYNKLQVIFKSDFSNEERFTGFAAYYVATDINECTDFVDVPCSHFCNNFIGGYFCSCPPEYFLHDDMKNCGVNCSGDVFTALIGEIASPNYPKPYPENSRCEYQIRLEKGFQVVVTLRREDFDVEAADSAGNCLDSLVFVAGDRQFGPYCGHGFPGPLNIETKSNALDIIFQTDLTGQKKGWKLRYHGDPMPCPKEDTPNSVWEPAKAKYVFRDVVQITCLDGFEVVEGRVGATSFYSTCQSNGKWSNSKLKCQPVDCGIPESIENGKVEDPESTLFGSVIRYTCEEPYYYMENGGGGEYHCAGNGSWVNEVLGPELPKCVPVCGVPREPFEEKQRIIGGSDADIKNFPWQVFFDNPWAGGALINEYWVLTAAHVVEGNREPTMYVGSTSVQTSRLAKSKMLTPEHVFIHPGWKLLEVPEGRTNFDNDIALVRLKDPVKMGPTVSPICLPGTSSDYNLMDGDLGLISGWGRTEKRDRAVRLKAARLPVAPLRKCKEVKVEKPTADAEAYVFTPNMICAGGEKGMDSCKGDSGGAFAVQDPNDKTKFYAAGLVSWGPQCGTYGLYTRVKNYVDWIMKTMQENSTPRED
Experimental: (§1) All variants were transiently expressed and purified by the method described above. The binding affinity of each histidine-substituted variant at pH 7.4 and pH 5.8 was determined at 37 degrees C. using Biacore T200 instrument (GE Healthcare). Recombinant Protein A/G (Pierce) was immobilized onto all flow cells of a CM4 sensor chip using an amine coupling kit (GE Healthcare). Antibodies and analytes were prepared in 7(+) buffer (20 mM ACES, 150 mM NaCl, 1.2 mM CaCl2, 0.05% Tween 20, 0.005% NaN3, pH 7.4), 5(+) buffer (20 mM ACES, 150 mM NaCl, 1.2 mM CaCl2, 0.05% Tween 20, 0.005% NaN3, pH 5.8), or 5(−) buffer (20 mM ACES, 150 mM NaCl, 3 micro M CaCl2, 0.05% Tween 20, 0.005% NaN3, pH 5.8). Each antibody was captured onto the sensor surface by protein A/G. Antibody capture levels were aimed at 200 resonance unit (RU). Serum-derived human C1s (CompTech) or recombinant C1s prepared in EXAMPLE 1 was injected at 50 nM, followed by dissociation. The sensor surface was regenerated in each cycle with 10 mM Glycine-HCl, pH 1.5. […] The ratio of KD 5.8+ to KD 7.4+(“KD 5+/7+”) and that of KD 5.8− to KD 7.4+(“KD 5−/7+”) were calculated. When the KD 5+/7+ or KD 5−/7+ of a variant is larger than that of the parent antibody IPN009VH2-SG4GK/IPN009VK3-SK1, that variant is considered to be “pH”- or “pH and Ca”-dependent, respectively. When binding response in 5(+) buffer and/or in 5(−) buffer of a variant is much lower than that of IPN09VH2/IPN009VK3, that variant is also considered as “pH”- and/or “pH and Ca”-dependent. Therefore, such mutations are effective to generate “pH”- and/or “pH and Ca”-dependent antibody. To further enhance “pH” and/or “pH and Ca” dependency, a combination of histidine mutations was conducted. Antibodies with combinations of histidine mutations were evaluated using Biacore by the method described above.

human C1s [2] = biological target: T1, human C1s; assay: SPR, Ab captured; pH 5.8, 3 uM Ca; remark: listed apart in the source
How it was run: (§2)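 Readout: Biacore KD. Antibodies on protein A/G (~200 RU), C1s at 50 nM, 37 °C, ACES-buffered saline with Tween at pH 7.4/1.2 mM Ca, pH 5.8/1.2 mM Ca or pH 5.8/3 µM Ca.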

human C1s [3] = biological target: T1, human C1s; assay: SPR, Ab captured; pH 5.8, 1.2 mM Ca
Experimental: as §1

human C1s [4] = biological target: T1, human C1s; assay: SPR, Ab captured; pH 7.4, 1.2 mM Ca
Experimental: as §1

human C1s [5] = biological target: T1, human C1s; assay: SPR, Ab captured; pH 7.4, 1.2 mM Ca; remark: listed apart in the source
How it was run: as §2

human C1s [6] = biological target: T1, human C1s; assay: SPR, Ab captured; pH 5.8, 1.2 mM Ca; remark: listed apart in the source
How it was run: as §2

human C1s [7] = biological target: T1, human C1s; assay: SPR, Ab captured; pH 7.4, 1.2 mM Ca; remark: listed apart in the source
How it was run: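 Antibody captured on protein A/G (~200 RU) on Biacore T200 at 37C; serum-derived or recombinant human C1s injected at 50 nM, then dissociation. KD measured at pH 7.4 with 1.2 mM Ca and at pH 5.8 with 1.2 mM or 3 uM Ca; KD ratios pH 5.8/pH 7.4 calculated.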

human C1s [8] = biological target: T1, human C1s; assay: SPR; KD pH 5.8 3 uM Ca / KD pH 7.4 1.2 mM Ca
Experimental: as §1

human C1s [9] = biological target: T1, human C1s; assay: SPR; KD pH 5.8 3 uM Ca / KD pH 7.4 1.2 mM Ca; remark: listed apart in the source
How it was run: as §2

human C1s [10] = biological target: T1, human C1s; assay: SPR; KD pH 5.8 1.2 mM Ca / KD pH 7.4 1.2 mM Ca
Experimental: as §1

human C1s [11] = biological target: T1, human C1s; assay: SPR; KD pH 5.8 1.2 mM Ca / KD pH 7.4 1.2 mM Ca; remark: listed apart in the source
How it was run: as §2

human C1s [12] = biological target: T2, human C1s (human, UniProt P09871 16-688); assay: SPR; KD at pH 5.8 (3 uM Ca) over KD at pH 7.4 (1.2 mM Ca)
T2 construct: Analyte in the Biacore assays; also called hC1s; serum-derived human C1s (CompTech)
T2 sequence: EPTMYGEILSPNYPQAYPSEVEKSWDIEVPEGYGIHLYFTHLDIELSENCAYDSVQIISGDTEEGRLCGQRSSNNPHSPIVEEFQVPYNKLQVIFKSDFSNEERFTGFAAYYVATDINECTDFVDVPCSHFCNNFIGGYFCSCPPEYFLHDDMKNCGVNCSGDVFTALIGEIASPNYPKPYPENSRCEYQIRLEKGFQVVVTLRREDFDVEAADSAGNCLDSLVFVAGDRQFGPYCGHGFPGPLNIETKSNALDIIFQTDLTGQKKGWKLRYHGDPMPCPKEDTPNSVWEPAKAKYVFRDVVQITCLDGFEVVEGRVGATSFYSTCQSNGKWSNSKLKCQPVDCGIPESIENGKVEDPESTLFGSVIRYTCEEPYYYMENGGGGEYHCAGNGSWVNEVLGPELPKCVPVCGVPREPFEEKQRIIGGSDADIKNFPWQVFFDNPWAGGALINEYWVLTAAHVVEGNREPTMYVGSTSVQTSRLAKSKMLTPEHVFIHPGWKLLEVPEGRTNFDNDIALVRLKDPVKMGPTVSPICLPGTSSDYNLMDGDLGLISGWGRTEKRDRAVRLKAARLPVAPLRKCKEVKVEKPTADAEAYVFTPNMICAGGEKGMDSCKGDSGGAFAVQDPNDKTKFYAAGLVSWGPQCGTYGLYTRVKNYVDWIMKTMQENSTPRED
Experimental: as §1

human C1s [13] = biological target: T2, human C1s; assay: SPR; KD at pH 5.8 (1.2 mM Ca) over KD at pH 7.4 (1.2 mM Ca)
Experimental: as §1

human C1s [14] = biological target: T2, human C1s; assay: SPR (Biacore T200, 37C), Ab captured on protein A/G; pH 5.8, 3 uM Ca
Experimental: as §1

human C1s [15] = biological target: T2, human C1s; assay: SPR (Biacore T200, 37C), Ab captured on protein A/G; pH 5.8, 1.2 mM Ca
Experimental: as §1

human C1s [16] = biological target: T2, human C1s; assay: SPR (Biacore T200, 37C), Ab captured on protein A/G; pH 7.4, 1.2 mM Ca
Experimental: as §1

koff (human C1s [1]): 0.00204 s⁻¹
kon (human C1s [1]): 606000 M⁻¹ s⁻¹
koff (human C1s [2]): 0.00204 s⁻¹
kon (human C1s [2]): 606000 M⁻¹ s⁻¹
koff (human C1s [3]): 0.000108 s⁻¹
kon (human C1s [3]): 662000 M⁻¹ s⁻¹
koff (human C1s [4]): 0.000298 s⁻¹
kon (human C1s [4]): 362000 M⁻¹ s⁻¹
koff (human C1s [5]): 0.000298 s⁻¹
kon (human C1s [5]): 362000 M⁻¹ s⁻¹
koff (human C1s [6]): 0.000108 s⁻¹
kon (human C1s [6]): 662000 M⁻¹ s⁻¹
koff (human C1s [7]): 0.000298 s⁻¹
kon (human C1s [7]): 362000 M⁻¹ s⁻¹
KD 5(-)/7(+) (human C1s [8]): 4.1
KD 5(-)/7(+) (human C1s [9]): 4.1
KD 5(+)/7(+) (human C1s [10]): 0.2
KD 5(+)/7(+) (human C1s [11]): 0.2
B1: C1_IPN009VH2-SG4GK/IPN009VK3-SK1 (antibody, human IgG4 S228P, kappa)
heavy: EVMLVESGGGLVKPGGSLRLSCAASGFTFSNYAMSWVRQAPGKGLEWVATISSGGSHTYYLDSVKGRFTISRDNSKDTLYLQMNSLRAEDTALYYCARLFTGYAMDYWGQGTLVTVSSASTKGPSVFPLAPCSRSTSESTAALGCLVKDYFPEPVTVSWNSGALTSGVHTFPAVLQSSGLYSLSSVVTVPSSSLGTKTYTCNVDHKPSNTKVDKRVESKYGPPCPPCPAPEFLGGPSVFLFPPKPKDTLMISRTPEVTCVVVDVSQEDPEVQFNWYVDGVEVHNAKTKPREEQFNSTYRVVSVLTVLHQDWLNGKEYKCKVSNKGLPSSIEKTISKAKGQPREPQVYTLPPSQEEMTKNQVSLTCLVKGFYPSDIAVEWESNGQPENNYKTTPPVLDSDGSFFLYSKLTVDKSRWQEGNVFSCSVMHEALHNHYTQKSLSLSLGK
light: QIVLTQSPATLSLSPGERATLSCTASSSVSSSYLHWYQQKPGKAPKLWIYSTSNLASGVPSRFSGSGSGTDYTLTISSLQPEDFATYYCHQYYRLPPITFGQGTKLEIKRTVAAPSVFIFPPSDEQLKSGTASVVCLLNNFYPREAKVQWKVDNALQSGNSQESVTEQDSKDSTYSLSSTLTLSKADYEKHKVYACEVTHQGLSSPVTKSFNRGEC
notes: parent antibody; variable regions as described in WO2016164358; also called IPN009VH2/IPN009VK3; IPN09VH2/IPN09VK3

KD 5(-)/7(+) (human C1s [12]): 9.5
KD 5(+)/7(+) (human C1s [13]): 23.3
koff (human C1s [14]): 0.00401 s⁻¹
kon (human C1s [14]): 504000 M⁻¹ s⁻¹
koff (human C1s [15]): 0.0143 s⁻¹
kon (human C1s [15]): 732000 M⁻¹ s⁻¹
koff (human C1s [16]): 0.000548 s⁻¹
kon (human C1s [16]): 654000 M⁻¹ s⁻¹
B2: C1_IPN92H0288-SG4GK/IPN93L0058-SK1 (antibody, human IgG4 S228P, kappa)
heavy: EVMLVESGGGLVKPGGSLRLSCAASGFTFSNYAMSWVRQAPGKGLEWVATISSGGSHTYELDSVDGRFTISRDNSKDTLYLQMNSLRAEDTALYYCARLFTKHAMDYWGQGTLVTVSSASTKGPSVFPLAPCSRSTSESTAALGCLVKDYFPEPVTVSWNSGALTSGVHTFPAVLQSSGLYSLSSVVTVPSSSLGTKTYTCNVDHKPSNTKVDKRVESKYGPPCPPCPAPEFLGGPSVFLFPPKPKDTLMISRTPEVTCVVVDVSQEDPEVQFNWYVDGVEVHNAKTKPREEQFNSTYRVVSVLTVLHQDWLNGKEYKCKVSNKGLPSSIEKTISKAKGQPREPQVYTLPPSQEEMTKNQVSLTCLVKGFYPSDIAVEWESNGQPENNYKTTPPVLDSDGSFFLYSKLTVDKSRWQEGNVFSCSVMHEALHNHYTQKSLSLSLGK
light: QIVLTQSPATLSLSPGERATLSCTASSEVSSSYLHWYQQKPGKAPKLWIYSTSNLASGVPSRFSGSGSGTDYTLTISSLQPEDFATYYCHQYYRLHPITFGQGTKLEIKRTVAAPSVFIFPPSDEQLKSGTASVVCLLNNFYPREAKVQWKVDNALQSGNSQESVTEQDSKDSTYSLSSTLTLSKADYEKHKVYACEVTHQGLSSPVTKSFNRGEC
notes: also called IPN92H0288/IPN93L0058

Kd (human C1s [1]): 9.54 nM
koff (human C1s [1]): > 0.1 s⁻¹
Kd (human C1s [3]): 3.21 nM
koff (human C1s [3]): 0.00203 s⁻¹
kon (human C1s [3]): 632000 M⁻¹ s⁻¹
Kd (human C1s [4]): 2.68 nM
koff (human C1s [4]): 0.000898 s⁻¹
kon (human C1s [4]): 335000 M⁻¹ s⁻¹
KD 5(-)/7(+) (human C1s [8]): 3.6
KD 5(+)/7(+) (human C1s [10]): 1.2
B3: C1_IPN009VH2-SG4GK/IPN93L0021-SK1 (antibody, human IgG4 S228P, kappa, name in Kabat numbering)
heavy: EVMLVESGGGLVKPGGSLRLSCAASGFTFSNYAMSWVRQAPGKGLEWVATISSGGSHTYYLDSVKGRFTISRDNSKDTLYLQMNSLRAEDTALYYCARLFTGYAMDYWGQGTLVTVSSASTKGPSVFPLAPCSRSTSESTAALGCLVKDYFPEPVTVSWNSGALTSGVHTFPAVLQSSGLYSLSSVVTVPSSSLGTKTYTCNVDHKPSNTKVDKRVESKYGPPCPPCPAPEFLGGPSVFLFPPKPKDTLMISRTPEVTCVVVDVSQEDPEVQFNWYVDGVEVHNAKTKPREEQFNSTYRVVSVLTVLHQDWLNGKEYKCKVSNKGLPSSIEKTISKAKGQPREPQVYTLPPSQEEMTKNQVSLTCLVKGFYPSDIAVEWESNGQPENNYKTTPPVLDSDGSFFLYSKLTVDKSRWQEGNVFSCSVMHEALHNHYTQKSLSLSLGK
light: QIVLTQSPATLSLSPGERATLSCTASSSVSSSYLHWYQQKPGKAPKLWIYSTSNLASGVPSRFSGSGSGTDYTLTISSLQPEDFATYYCHQYHRLPPITFGQGTKLEIKRTVAAPSVFIFPPSDEQLKSGTASVVCLLNNFYPREAKVQWKVDNALQSGNSQESVTEQDSKDSTYSLSSTLTLSKADYEKHKVYACEVTHQGLSSPVTKSFNRGEC
notes: also called IPN009VH2/IPN93L0021
